For orientation: Kd means the concentration at which binding is half-saturated. Low readings indicate a tighter complex, high ones a looser complex.

The text below walks through data of paper PMC6029887 (Cell reports, 2018).

Data set [1] deals with chimera cad-11EC16EC2 (cadherin-11 EC1 joined to cadherin-6 EC2) (mouse) (UniProt P97326). In words: AUC.
Data set [2] concerns the target cadherin-18 EC1-EC2 adhesive fragment (mouse), wild-type (mouse). Put plainly: AUC.
The target in data set [3] is Cadherin-6 M3V Y20L H97Q E89P (VLQP) specificity mutant, adhesive fragment (mouse) (mouse). In words: AUC.
For data set [4], the target named is chimera cad-6EC111EC2 (cadherin-6 EC1 joined to cadherin-11 EC2) (mouse). In words: AUC.
The target in data set [5] is Cadherin-11 L20Y Q97H (YH) specificity mutant, adhesive fragment (mouse) (mouse). Put plainly: AUC.
Data set [6] concerns the target Cadherin-11 V3M L20Y Q97H P89E (MYHE) specificity mutant, adhesive fragment (mouse) (mouse). In words: AUC.
The target of data set [7] is Cadherin-6 Y20L H97Q (LQ) specificity mutant, adhesive fragment (mouse) (mouse). Put plainly: AUC.
Data set [8] deals with the molecule itself. In words: AUC.
Data set [9] addresses T1, Cys-tagged cadherin-6 adhesive fragment (mouse) (mouse, UniProt P97326 54-260).
T1 sequence: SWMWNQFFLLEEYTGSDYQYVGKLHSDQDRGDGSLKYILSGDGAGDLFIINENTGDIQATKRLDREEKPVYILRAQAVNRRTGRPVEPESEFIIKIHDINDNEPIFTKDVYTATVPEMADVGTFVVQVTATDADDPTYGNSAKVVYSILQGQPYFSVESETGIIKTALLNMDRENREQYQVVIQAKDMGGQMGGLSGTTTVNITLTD
Put plainly: SPR. A general note: In SPR one partner is held on a chip, and binding of the other changes the refractive index at the surface.

Data set [10] deals with T2, Cys-tagged cadherin-10 adhesive fragment (mouse) (mouse, UniProt P70408 55-261).
T2 sequence: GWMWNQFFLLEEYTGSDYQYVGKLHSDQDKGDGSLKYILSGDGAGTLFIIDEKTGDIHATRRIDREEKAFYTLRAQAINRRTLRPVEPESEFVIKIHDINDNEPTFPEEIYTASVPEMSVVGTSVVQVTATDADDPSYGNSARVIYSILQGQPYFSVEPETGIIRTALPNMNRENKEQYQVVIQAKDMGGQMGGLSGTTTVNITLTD
In words: SPR.

Data set [11] deals with T3, Cys-tagged cadherin-7 adhesive fragment (mouse) (mouse, UniProt Q8BM92 48-254).
T3 sequence: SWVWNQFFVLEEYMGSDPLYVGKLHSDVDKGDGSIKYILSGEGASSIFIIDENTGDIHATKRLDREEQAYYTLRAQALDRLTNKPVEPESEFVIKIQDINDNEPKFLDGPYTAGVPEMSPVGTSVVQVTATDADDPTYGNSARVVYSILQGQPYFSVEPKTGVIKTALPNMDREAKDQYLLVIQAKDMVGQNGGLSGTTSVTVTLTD
In words: SPR.

Take “chimera cad-11EC16EC2 (cadherin-11 EC1 joined to cadherin-6 EC2) (from UniProt P97326 151-260) (domain or fragment)”: the Kd in [1] was 15.6 µM.
In the case of “cadherin-18 EC1-EC2 adhesive fragment (mouse), wild-type (domain or fragment)”, the Kd in [2] amounted to 16.8 µM.
In turn, “Cadherin-6 M3V Y20L H97Q E89P (VLQP) specificity mutant, adhesive fragment (mouse) (domain or fragment)” registered a Kd in data set [3] of 6.73 µM.
Take “chimera cad-6EC111EC2 (cadherin-6 EC1 joined to cadherin-11 EC2) (domain or fragment)”: the Kd in data set [4] was found to be 5.6 µM.
In the case of “Cadherin-11 L20Y Q97H (YH) specificity mutant, adhesive fragment (mouse) (domain or fragment)”, the Kd in [5] was 11.1 µM.
Turning to “Cadherin-11 V3M L20Y Q97H P89E (MYHE) specificity mutant, adhesive fragment (mouse) (domain or fragment)”, the Kd in data set [6] was 8.2 µM.
“Cadherin-6 Y20L H97Q (LQ) specificity mutant, adhesive fragment (mouse) (domain or fragment)” gave a Kd in data set [7] of 9.63 µM.

B1: cadherin-24 EC1-EC3 fragment (mouse), wild-type (domain or fragment)
chain: SWVWNQFFVIEEYSGPEPVLIGKLHSDVDRGEGRTKYLLTGEGAGTVFVIDEATGNIHVTKSLDREEKAQYVLLAQAVDRASNRPLEPPSEFIIKVQDINDNPPVFPLGPYHATVPEMSNVGTSVIQVTAHDADDPSYGNSAKLVYTVLDGLPFFSVDPQTGVVRTAIPNMDRETQEEFLVVIQAKDMGGHMGGLSGSTTVTVTLSDVNDNPPKFPQSLYQFSVVETAGPGTLVGRLKAQDPDLGDNALVAYSILNGEGSEVFSISTDSQGQDGLLTVRKPLDFETRRSYTFRVEATNTLIDPAYLRRGPFKDVASVRVTVQDAPEPPAF
For B1, binding in [8] was put at a Kd of 8.2 µM.

B2: cadherin-7 EC1-EC2 adhesive fragment (mouse), wild-type (domain or fragment)
chain: T3 sequence
The molecule B2 displayed a Kd in data set [8] of 32.2 µM. Further, the binding result in data set [9] and in data set [10] was “binds” throughout.

B3: cadherin-22 EC1-EC2 adhesive fragment (mouse), wild-type (domain or fragment)
chain: GWVWNQFFVVEEYTGTEPLYVGKIHSDSDEGDGTIKYTISGEGAGTIFLIDELTGDIHATERLDREQKTFYTLRAQARDRATNRLLEPESEFIIKVQDINDSEPRFLHGPYIGSVAELSPTGTSVMQVMASDADDPTYGSSARLVYSVLDGEHHFTVDPKTGVIRTAVPDLDRESQERYEVVIQATDMAGQLGGLSGSTTVTIVVTD
B3 displayed a Kd in data set [8] of 3.9 µM.

B4: cadherin-20 EC1-EC2 adhesive fragment (mouse), wild-type (domain or fragment)
chain: SWVWNQFFVLEEYTGTDPLYVGKLHSDMDRGDGSIKYILSGEGAGIVFTIDDTTGDIHAIQRLDREERAQYTLRAQALDRRTGRPMEPESEFIIKIQDINDNEPKFLDGPYIATVPEMSPVGTSVIQVTATDADDPTYGNSARVVYSILQGQPYFSVDSKTGVIRTALMNMDREAKEYYEVIIQAKDMGGQLGGLAGTTTVNITLSDVNDNPPRF
Regarding B4, the Kd in data set [8] is 9.3 µM.

B5: cadherin-6 EC1-EC2 adhesive fragment (mouse), wild-type (domain or fragment)
chain: T1 sequence
B5: in data set [8], the equilibrium dissociation constant (Kd) came to 3.1 µM. The binding result in [11] and in data set [10] was “binds” in each case.

B6: cadherin-10 EC1-EC2 adhesive fragment (mouse), wild-type (domain or fragment)
chain: T2 sequence
Regarding B6, the affinity in data set [8], expressed as Kd, was 42.2 µM. Further, the binding result in [9] and in data set [11] was “binds” in each case.

B7: cadherin-11 EC1-EC2 adhesive fragment (mouse), wild-type (domain or fragment)
chain: GWVWNQFFVIEEYTGPDPVLVGRLHSDIDSGDGNIKYILSGEGAGTIFVIDDKSGNIHATKTLDREERAQYTLMAQAVDRDTNRPLEPPSEFIVKVQDINDNPPEFLHEIYHANVPERSNVGTSVIQVTASDADDPTYGNSAKLVYSILEGQPYFSVEAQTGIIRTALPNMDREAKEEYHVVIQAKDMGGHMGGLSGTTKVTITLTDVNDNPPKF
B7 registered a Kd in [8] of 33.8 µM.

B8: cadherin-9 EC1-EC2 adhesive fragment (mouse), wild-type (domain or fragment)
chain: GWMWNQFFLLEEYTGTDTQYVGKLHTDQDKGDGNLKYILTGDGAGNLFVIDENTGDIHAAKRLDREEKSLYILRAKAIDRKTGRQVEPESEFIIKIHDINDNEPKFTKDLYTASVPEMSGVGTSVIQVTATDADDANYGNSAKVVYSILQGQPYFSVDPESGIIKTALPDMSRENKEQYQVVIQAKDMGGQMGGLSGTTTVNITLTDVNNNPPRF
B8 came in with a Kd in data set [8] of 17 µM.

B9: cadherin-8 EC1-EC3 fragment (mouse), wild-type (domain or fragment)
chain: GWVWNQMFVLEEFSGPEPILVGRLHTDLDPGSKKIKYILSGDGAGTIFQINDITGDIHAIKRLDREEKAEYTLTAQAVDFETNKPLEPPSEFIIKVQDINDNAPEFLNGPYHATVPEMSILGTSVTNVTATDADDPVYGNSAKLVYSILEGQPYFSIEPETAIIKTALPNMDREAKEEYLVVIQAKDMGGHSGGLSGTTTLTVTLTDVNDNPPKFAQSLYHFSVPEDVVLGTAIGRVKANDQDIGENAQSSYDIIDGDGTALFEITSDAQAQDGVIRLRKPLDFETKKSYTLKVEAANIHIDPRFSSRGPFKDTATVKIVVEDADEPPVF
In [8], B9 registered a Kd of 15 µM.

B10: cadherin-12 EC1-EC2 adhesive fragment (mouse), wild-type (domain or fragment)
chain: GWVWNQFFVLEEYMGSEPQYVGKLHSDLDKGEGTVKYTLSGDGAGTVFTIDETTGDIHAIRSLDREEKPFYTLRAQAVDIETRKPLEPESEFIIKVQDINDNEPKFLDGPYVASVPEMSPVGAYVLQVKATDADDPTYGNSARVVYSILQGQPYFSIDPKTGVIRTALPNMDREVKEQYQVLIQAKDMGGQLGGLAGTTVVNITLTDVNDNPPRF
For B10, the Kd in data set [8] worked out at 8.3 µM.
